From the supplement of paper PMC9112550, “Optimization of the antimicrobial peptide Bac7 by deep mutational scanning” (BMC Biology, 2022)

System: Escherichia coli TOP10
Test: shrunken log2 fold change of peptide-encoding DNA abundance (4.5 h post-induction vs induction); higher = less antimicrobial activity (less host growth inhibition)
Conditions: time post-induction: 4.5 h; library: site-saturation at positions 5, 18, 19, 20
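Note: peptides expressed intracellularly from a pBAD plasmid library in pooled LB shake-flask culture, induced with 0.3% L-arabinose, DNA abundance read by NGS, three biological replicates, DESeq2 with apeglm shrinkage.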

| Sequence | shrunken log2 fold change |
| --- | --- |
| RRIRARPPRLPRPRPRPDSAPRP | 0.608 |
| RRIRGRPPRLPRPRPRPQDRPRP | 0.297 |
| RRIRVRPPRLPRPRPRPWMCPRP | -0.522 |
| RRIRKRPPRLPRPRPRPDNQPRP | -0.233 |
| RRIRQRPPRLPRPRPRPHHIPRP | -0.764 |
| RRIRMRPPRLPRPRPRPYYSPRP | -0.0674 |
| RRIRSRPPRLPRPRPRPMTKPRP | 0.0651 |
| RRIRKRPPRLPRPRPRPECGPRP | 1.01 |
| RRIRIRPPRLPRPRPRPDKYPRP | -0.189 |
| RRIRERPPRLPRPRPRPRWRPRP | 0.706 |
| RRIRNRPPRLPRPRPRPCHKPRP | -0.00663 |
| RRIRLRPPRLPRPRPRPLRDPRP | 0.356 |
| RRIRVRPPRLPRPRPRPESNPRP | 0.0327 |
| RRIRFRPPRLPRPRPRPMYVPRP | -1.63 |
| RRIRMRPPRLPRPRPRPSWGPRP | 0.155 |
| RRIRQRPPRLPRPRPRPLQGPRP | 0.0512 |
| RRIRERPPRLPRPRPRPAVKPRP | -0.0221 |
| RRIRKRPPRLPRPRPRPDQKPRP | 0.401 |
| RRIRTRPPRLPRPRPRPTAVPRP | -0.133 |
| RRIRIRPPRLPRPRPRPHHRPRP | -0.46 |

| Sequence | shrunken log2 fold change |
| --- | --- |
| RRIRSRPPRLPRPRPRPFRGPRP | -0.242 |
| RRIRNRPPRLPRPRPRPEMVPRP | -0.0225 |
| RRIRGRPPRLPRPRPRPWTCPRP | -0.0593 |
| RRIRLRPPRLPRPRPRPMKKPRP | 0.0162 |
| RRIRPRPPRLPRPRPRPIHAPRP | -0.0974 |
| RRIRARPPRLPRPRPRPHNMPRP | -0.446 |
| RRIRYRPPRLPRPRPRPSYAPRP | -0.149 |
| RRIRMRPPRLPRPRPRPEVYPRP | -0.0346 |
| RRIRMRPPRLPRPRPRPPMYPRP | -0.0977 |
| RRIRARPPRLPRPRPRPAYMPRP | -0.64 |
| RRIRTRPPRLPRPRPRPRFDPRP | 0.332 |
| RRIRMRPPRLPRPRPRPQIEPRP | 0.277 |
| RRIRIRPPRLPRPRPRPQPNPRP | -0.267 |
| RRIRKRPPRLPRPRPRPSTFPRP | -0.00863 |
| RRIRWRPPRLPRPRPRPYGQPRP | 0.051 |
| RRIRPRPPRLPRPRPRPAPLPRP | 0.407 |
| RRIRIRPPRLPRPRPRPNEIPRP | -0.191 |
| RRIRIRPPRLPRPRPRPASGPRP | 0.0837 |
| RRIRPRPPRLPRPRPRPRITPRP | 0.0754 |
| RRIRWRPPRLPRPRPRPPYNPRP | -0.221 |

| Sequence | shrunken log2 fold change |
| --- | --- |
| RRIRSRPPRLPRPRPRPHCSPRP | -0.686 |
| RRIRMRPPRLPRPRPRPFFCPRP | 0.0186 |
| RRIRLRPPRLPRPRPRPLDHPRP | -0.1 |
| RRIRMRPPRLPRPRPRPECSPRP | 0.333 |
| RRIRKRPPRLPRPRPRPLEGPRP | 0.162 |
| RRIRTRPPRLPRPRPRPYVGPRP | -0.689 |
| RRIRKRPPRLPRPRPRPEKGPRP | -0.00382 |
| RRIRPRPPRLPRPRPRPGESPRP | -0.0364 |
| RRIRPRPPRLPRPRPRPTQDPRP | 0.833 |
| RRIRSRPPRLPRPRPRPDIFPRP | -0.135 |
| RRIRTRPPRLPRPRPRPWGNPRP | -0.602 |
| RRIRCRPPRLPRPRPRPDIGPRP | -0.293 |
| RRIRIRPPRLPRPRPRPAWHPRP | 0.031 |
| RRIRQRPPRLPRPRPRPDTTPRP | 0.0217 |
| RRIRYRPPRLPRPRPRPQPNPRP | -0.226 |
| RRIRNRPPRLPRPRPRPEKKPRP | -0.113 |
| RRIRPRPPRLPRPRPRPLQRPRP | 0.395 |
| RRIRCRPPRLPRPRPRPAGWPRP | 0.719 |
| RRIRARPPRLPRPRPRPIYCPRP | 0.241 |
| RRIRYRPPRLPRPRPRPLPDPRP | -0.108 |
